Experimental data: the supplement of paper PMC7877785
± gives the uncertainty stated by the source.

Assay: self-splicing fitness, log relative to wild type (ln ratio); higher = more splicing; Tetrahymena group I intron in knt gene, E. coli kanamycin selection, DiMSum; sequences stand for … in CUCUCU…GGAGGGAAAAGUUAUCAGGCAUGCACCUGGUAGCUAGUCUUUAAACCAAUAGAUUGCAUCGGUUUAAAAGGCAAGACCGUCAAAUUGCGGGAAAGGGGUCAACAGCCGUUCAGUACCAAGUCUCAGGGGAAACUUUGAGAUGGCCUUGCAAAGGGUAUGGUAAUAAGCUGACGGACAUGGUCCUAACCACGCAGCCAAGUCCUAAGUCAACAGAUCUUCUGUUGAUAUGGAUGCAGUUCACAGACUAAAUGUCGGUCGGGGAAGAUGUAUUCUUCUCAUAAGAUAUAGUCGGACCUCUCCUUAAUGGGAGCUAGCGGAUGAAGUGAUGCAACACUGGAGCCGCUGGGAACUAAUUUGUAUGCGAAAGUAUAUUGAUUAGUUUUGGAGUACUCGUGGUCG
Outline: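 A randomised library covering all eight P1ex-region intron nucleotides was built with the intron in the knt kanamycin-resistance gene on pET-22b(+) and held in E. coli BL21(DE3). Cells were grown overnight at 37°C or 30°C on LB agar, with or without 25 μg/mL kanamycin, plus 100 μg/mL carbenicillin, 50 μM IPTG and 0.2% rhamnose, and pooled colonies were amplicon-sequenced on an Illumina HiSeq 2500. DiMSum fitness is the error-weighted combination of wild-type-normalised replicate fold changes, kanamycin versus none.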

Sequence | self-splicing fitness (ln) (30 °C) | self-splicing fitness (ln) (37 °C)
UUCCAGCAAUAUUACGGUUA | 0.496 ± 0.085 | 0.423 ± 0.087
UUCCAGCAAUAUUACGUAAG | -1.42 ± 0.066 | -0.28 ± 0.095
UUCCAGCAAUAUUACGUAAU | -2.36 ± 0.11 | -0.639 ± 0.12
UUCCAGCAAUAUUACGUAUA | -1.01 ± 0.17 | -1.26 ± 0.16
UUCCAGCAAUAUUACGUCAA | -1.3 ± 0.1 | -0.233 ± 0.12
UUCCAGCAAUAUUACGUGAU | -1.08 ± 0.044 | -0.294 ± 0.063
UUCCAGCAAUAUUACGUUUG | -4.67 ± 0.46 | -2.83 ± 0.24
UUCGAGCAAUAUUACGACAA | -0.778 ± 0.23 | 0.45 ± 0.23
UUCGAGCAAUAUUACGACCU | -1.7 ± 0.43 | 1.25 ± 0.38
UUCGAGCAAUAUUACGACGC | – | -2.67 ± 0.48
UUCGAGCAAUAUUACGAGAC | -0.119 ± 0.49 | –
UUCGAGCAAUAUUACGAGUU | -1.62 ± 0.18 | -0.549 ± 0.17
UUCGAGCAAUAUUACGAUGG | -3.47 ± 0.26 | -1.45 ± 0.33
UUCGAGCAAUAUUACGCAAU | – | -2.13 ± 0.43
UUCGAGCAAUAUUACGCGUG | -1.06 ± 0.13 | -0.676 ± 0.14
UUCGAGCAAUAUUACGGAGU | – | -2.26 ± 0.32
UUCGAGCAAUAUUACGGAUC | – | -1.85 ± 0.48
UUCGAGCAAUAUUACGGAUG | -3.22 ± 0.38 | -2.86 ± 0.32
UUCGAGCAAUAUUACGGCAU | -2.95 ± 0.27 | -1.44 ± 0.19
UUCGAGCAAUAUUACGGCGU | -1.44 ± 0.16 | -0.438 ± 0.19
UUCGAGCAAUAUUACGGGCA | -2.27 ± 0.17 | -0.711 ± 0.15
UUCGAGCAAUAUUACGGUGG | -3.36 ± 0.27 | -1.07 ± 0.19
UUCGAGCAAUAUUACGGUUU | -4.44 ± 0.36 | -1.93 ± 0.22
UUCGAGCAAUAUUACGUCGG | -2.96 ± 0.28 | -1.78 ± 0.29
UUCGAGCAAUAUUACGUCUC | -4.02 ± 0.47 | -2 ± 0.16
UUCGAGCAAUAUUACGUGAC | -3.65 ± 0.24 | -3.28 ± 0.27
UUCGAGCAAUAUUACGUUCG | -3.75 ± 0.24 | -2.32 ± 0.27

Sequence | self-splicing fitness (ln) (30 °C) | self-splicing fitness (ln) (37 °C)
UUCUAGCAAUAUUACGAAGA | -1.99 ± 0.19 | -1.61 ± 0.21
UUCUAGCAAUAUUACGAAGU | – | -0.603 ± 0.25
UUCUAGCAAUAUUACGAAUC | – | -1.98 ± 0.25
UUCUAGCAAUAUUACGAAUU | -2.96 ± 0.23 | -1.58 ± 0.18
UUCUAGCAAUAUUACGACAU | -2.324 ± 0.019 | -1.57 ± 0.034
UUCUAGCAAUAUUACGCAGC | – | -0.431 ± 0.2
UUCUAGCAAUAUUACGCCAA | -1.75 ± 0.21 | -0.272 ± 0.2
UUCUAGCAAUAUUACGCCCG | -1.09 ± 0.27 | -0.74 ± 0.4
UUCUAGCAAUAUUACGCGAA | -2.25 ± 0.21 | -1.3 ± 0.2
UUCUAGCAAUAUUACGCUAA | -2.53 ± 0.21 | -0.91 ± 0.14
UUCUAGCAAUAUUACGCUAC | -2.37 ± 0.38 | –
UUCUAGCAAUAUUACGCUGU | -2.17 ± 0.17 | -1.63 ± 0.2
UUCUAGCAAUAUUACGGAUG | -1.05 ± 0.098 | -0.888 ± 0.13
UUCUAGCAAUAUUACGGCUU | -3.3 ± 0.39 | -2.22 ± 0.28
UUCUAGCAAUAUUACGGGUG | -0.114 ± 0.078 | 0.281 ± 0.11
UUCUAGCAAUAUUACGGUCC | – | -2.46 ± 0.39
UUCUAGCAAUAUUACGGUGG | -4.34 ± 0.39 | -2.5 ± 0.26
UUCUAGCAAUAUUACGGUUG | -1.64 ± 0.11 | -1.78 ± 0.17
UUCUAGCAAUAUUACGUACA | -1.39 ± 0.19 | -0.376 ± 0.22
UUCUAGCAAUAUUACGUACG | -1.82 ± 0.14 | -0.281 ± 0.14
UUCUAGCAAUAUUACGUCUG | -2.22 ± 0.12 | -2.49 ± 0.21
UUCUAGCAAUAUUACGUGAG | -0.386 ± 0.06 | -0.345 ± 0.11
UUCUAGCAAUAUUACGUGCG | -1.98 ± 0.14 | -2.14 ± 0.13
UUCUAGCAAUAUUACGUGUU | -3.36 ± 0.17 | -3.2 ± 0.19
UUCUAGCAAUAUUACGUUAG | -3.63 ± 0.29 | -2.67 ± 0.37
UUCUAGCAAUAUUACGUUCA | -0.579 ± 0.16 | -1.11 ± 0.18
UUCUAGCAAUAUUACGUUCG | -2.17 ± 0.14 | -1.29 ± 0.16

Sequence | self-splicing fitness (ln) (30 °C) | self-splicing fitness (ln) (37 °C)
UUGAAGCAAUAUUACGAAGC | -3.4 ± 0.3 | -2.48 ± 0.49
UUGAAGCAAUAUUACGCAGA | -0.643 ± 0.13 | 0.228 ± 0.11
UUGAAGCAAUAUUACGCAGG | -1.15 ± 0.092 | -0.283 ± 0.098
UUGAAGCAAUAUUACGCCUC | – | -1.63 ± 0.42
UUGAAGCAAUAUUACGCUGU | -1.96 ± 0.14 | -1.84 ± 0.16
UUGAAGCAAUAUUACGCUUA | -1.17 ± 0.083 | -0.467 ± 0.093
UUGAAGCAAUAUUACGGAUU | -1.18 ± 0.081 | -0.94 ± 0.12
UUGAAGCAAUAUUACGGCUA | -0.00358 ± 0.093 | -0.295 ± 0.096
UUGAAGCAAUAUUACGGUCA | -0.522 ± 0.075 | -0.262 ± 0.099
UUGAAGCAAUAUUACGUAGU | -1.97 ± 0.12 | -1.54 ± 0.12
UUGAAGCAAUAUUACGUAUG | -0.752 ± 0.079 | -0.391 ± 0.11
UUGAAGCAAUAUUACGUCUU | -3.1 ± 0.18 | -1.24 ± 0.12
UUGAAGCAAUAUUACGUUCA | 0.472 ± 0.094 | 0.134 ± 0.11
UUGAAGCAAUAUUACGUUUA | -1.08 ± 0.062 | -0.682 ± 0.084
UUGCAGCAAUAUUACGAAAA | -1.02 ± 0.12 | -0.432 ± 0.12
UUGCAGCAAUAUUACGAACG | -0.781 ± 0.19 | -0.482 ± 0.2
UUGCAGCAAUAUUACGACCG | -0.719 ± 0.065 | -0.144 ± 0.093
UUGCAGCAAUAUUACGACCU | -0.892 ± 0.1 | -0.129 ± 0.15
UUGCAGCAAUAUUACGACGC | -3.11 ± 0.46 | –
UUGCAGCAAUAUUACGAGAG | -3.54 ± 0.23 | -1.36 ± 0.21
UUGCAGCAAUAUUACGAGCG | -1.14 ± 0.15 | -0.665 ± 0.15
UUGCAGCAAUAUUACGCCAG | -0.879 ± 0.13 | 0.0127 ± 0.2
UUGCAGCAAUAUUACGCCGA | -0.318 ± 0.11 | -0.371 ± 0.12
UUGCAGCAAUAUUACGCCGU | -3.46 ± 0.36 | -1.41 ± 0.3
UUGCAGCAAUAUUACGGCAU | -2.44 ± 0.19 | -1.19 ± 0.1
UUGCAGCAAUAUUACGGCGA | -1.53 ± 0.12 | -0.929 ± 0.14
